Laboratory results published in patent publication US20230407373A1 (priority 2020, published 2023).
Entries after “also recorded” stand apart in the source; their conditions may differ.

Key:
SARS-CoV-2 gRNA = type: binding
SARS-CoV-2 = type: cell-based; conditions: Calu-3 cells, 50 nM siRNA, RT-qPCR, relative to siNC
HCoV-OC43 gRNA and sgRNA = type: binding
gRNA of HCoV-OC43 = type: binding
[1] = system: SARS-CoV-2 gRNA and sgRNAs; type: binding

B1: CELF1: host protein, UniProt Q92879 (protein, UniProt Q92879 1-486, looked up)
CUGBP Elav-like family member …: MNGTLDHPDQPDLDAIKMFVGQVPRTWSEKDLRELFEQYGAVYEINVLRDRSQNPPQSKGCCFVTFYTRKAALEAQNALHNMKVLPGMHHPIQMKPADSEKNNAVEDRKLFIGMISKKCTENDIRVMFSSFGQIEECRILRGPDGLSRGCAFVTFTTRAMAQTAIKAMHQAQTMEGCSSPMVVKFADTQKDKEQKRMAQQLQQQMQQISAASVWGNLAGLNTLGPQYLALYLQLLQQTASSGNLNTLSSLHPMGGLNAMQLQNLAALAAAASAAQNTPSGTNALTTSSSPLSVLTSSGSSPSSSSSNSVNPIASLGALQTLAGATAGLNVGSLAGMAALNGGLGSSGLSNGTGSTMEALTQAYSGIQQYAAAALPTLYNQNLLTQQSIGAAGSQKEGPEGANLFIYHLPQEFGDQDLLQMFMPFGNVVSAKVFIDKQTNLSKCFGFVSYDNPVSAQAAIQSMNGFQIGMKRLKVQLKRSKNDSKPY
enrichment in SARS-CoV-2 Probe I RNP capture (SARS-CoV-2 gRNA): found in the SARS-CoV-2 experiments | change in viral RNA levels (gRNA, N sgRNA) after siRNA depletion (SARS-CoV-2): increased viral RNAs; also recorded: only modest | target (unweighted spectral count, OC43 Probe II capture) (HCoV-OC43 gRNA and sgRNA; 36 hpi, type n_36_v, tested against no-probe control, FDR<10%): 14 | target (unweighted spectral count) (HCoV-OC43 gRNA and sgRNA; OC43 Probe II, 24 hpi (type n_24_v), infected cells, tested against no-probe control): 6 | target (unweighted spectral count, OC43 Probe II) (HCoV-OC43 gRNA and sgRNA; type n_48_v, 48 hpi, OC43 Probe II capture on infected cells): 14 | background (unweighted spectral count, no-probe control) (HCoV-OC43 gRNA and sgRNA; type n_48_v, 48 hpi, no-probe control on infected cells): 1 | target (spectral count) (HCoV-OC43 gRNA and sgRNA; type s_36_m, HCoV-OC43-infected HCT-8 cells, 36 hpi, Probe II): 14 | background (spectral count) (HCoV-OC43 gRNA and sgRNA; type s_36_m, uninfected-probe control, 36 hpi, Probe II): 1 | target (spectral count) (gRNA of HCoV-OC43; type g_36_m, HCoV-OC43-infected HCT-8 cells, 36 hpi, Probe I): 15 | background (spectral count) (gRNA of HCoV-OC43; type g_36_m, uninfected-probe control, 36 hpi, Probe I): 1 | target (spectral count, OC43 Probe I RNP capture) (gRNA of HCoV-OC43; type n_48_v: 48 hours post-infection, infected cells, OC43 Probe I, unweighted spectral count): 16 | background (spectral count, no-probe control) (gRNA of HCoV-OC43; type n_48_v: 48 hours post-infection, no-probe control on infected cells): 1 | enrichment in SARS-CoV-2 Probe II RNP capture [1]: found in the SARS-CoV-2 experiments | target (unweighted spectral count in RNP capture) ([1]; Probe II capture, […], LC-MS/MS LFQ): 25 | background (unweighted spectral count in control) ([1]; no-probe control pull-down, used as background for Probe II): 1
